# From the supplement of paper PMC7877785
# ± gives the uncertainty stated by the source.
# Assay: self-splicing fitness, log relative to wild type (ln ratio); higher = more splicing; Tetrahymena group I intron in knt gene, E. coli kanamycin selection, DiMSum; sequences stand for … in CUCUCU…GGAGGGAAAAGUUAUCAGGCAUGCACCUGGUAGCUAGUCUUUAAACCAAUAGAUUGCAUCGGUUUAAAAGGCAAGACCGUCAAAUUGCGGGAAAGGGGUCAACAGCCGUUCAGUACCAAGUCUCAGGGGAAACUUUGAGAUGGCCUUGCAAAGGGUAUGGUAAUAAGCUGACGGACAUGGUCCUAACCACGCAGCCAAGUCCUAAGUCAACAGAUCUUCUGUUGAUAUGGAUGCAGUUCACAGACUAAAUGUCGGUCGGGGAAGAUGUAUUCUUCUCAUAAGAUAUAGUCGGACCUCUCCUUAAUGGGAGCUAGCGGAUGAAGUGAUGCAACACUGGAGCCGCUGGGAACUAAUUUGUAUGCGAAAGUAUAUUGAUUAGUUUUGGAGUACUCGUGGUCG
# Method in brief: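 Fitness was computed with DiMSum as the error-weighted combination of replicate fold changes, kanamycin versus none, each normalised to wild type. The library randomised all eight intron nucleotides of the P1ex region, with the intron placed in the knt kanamycin-resistance gene on pET-22b(+) in E. coli BL21(DE3). Six replicate transformations were grown overnight at 37°C or 30°C on LB agar with or without 25 μg/mL kanamycin, plus 100 μg/mL carbenicillin, 50 μM IPTG and 0.2% rhamnose. Pooled colonies were amplicon-sequenced on an Illumina HiSeq 2500.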
Sequence,self-splicing fitness (ln) (30 °C),self-splicing fitness (ln) (37 °C)
CAGUAGCAAUAUUACGUAGG,-0.361 ± 0.047,-0.0678 ± 0.066
UUGGAGCAAUAUUACGUCCG,-2.22 ± 0.29,-1.27 ± 0.4
AGUUAGCAAUAUUACGCGGA,-0.823 ± 0.29,-0.581 ± 0.14
CAAGAGCAAUAUUACGAGUA,–,-1.56 ± 0.27
GCUAAGCAAUAUUACGAACU,-0.229 ± 0.079,0.203 ± 0.095
UUGGAGCAAUAUUACGGGAC,-4 ± 0.48,-0.322 ± 0.34
AGUUAGCAAUAUUACGCACG,-1.42 ± 0.19,0.196 ± 0.22
CCUCAGCAAUAUUACGCCGU,-3.05 ± 0.23,-2.08 ± 0.25
GGAUAGCAAUAUUACGCGUG,-1.49 ± 0.087,-0.118 ± 0.08
GCGUAGCAAUAUUACGCCAU,-2.97 ± 0.31,-2.93 ± 0.47
CCAUAGCAAUAUUACGCGAG,-2.77 ± 0.16,-1.22 ± 0.13
CGCCAGCAAUAUUACGUAUC,-3.94 ± 0.33,-3.92 ± 0.42
GACAAGCAAUAUUACGAUCA,0.0763 ± 0.12,-0.0166 ± 0.15
CACCAGCAAUAUUACGAGAA,-3.55 ± 0.43,-2.33 ± 0.28
AUUCAGCAAUAUUACGACUU,-0.122 ± 0.1,0.27 ± 0.11
CGCUAGCAAUAUUACGUACA,-2.62 ± 0.14,-1.35 ± 0.15
UCGUAGCAAUAUUACGUUCA,-1.39 ± 0.097,-0.421 ± 0.11
ACAAAGCAAUAUUACGCCAC,-3.01 ± 0.38,–
UCAGAGCAAUAUUACGUUCG,-1.54 ± 0.11,-1.07 ± 0.15
UUUGAGCAAUAUUACGGAUU,-3.69 ± 0.25,-2.31 ± 0.2
GGUGAGCAAUAUUACGAAUU,-1.69 ± 0.36,-0.274 ± 0.38
GGCCAGCAAUAUUACGCCAU,-3.57 ± 0.33,-2.12 ± 0.28
CGUUAGCAAUAUUACGGGUA,-3.15 ± 0.37,-2.08 ± 0.2
UCACAGCAAUAUUACGAUUU,-4.01 ± 0.21,-0.814 ± 0.11
CCGCAGCAAUAUUACGAUAC,-2.77 ± 0.28,-2.19 ± 0.46

Sequence,self-splicing fitness (ln) (30 °C),self-splicing fitness (ln) (37 °C)
UAGGAGCAAUAUUACGUCUG,-0.473 ± 0.13,0.629 ± 0.15
GCUCAGCAAUAUUACGUGCU,-2.26 ± 0.086,-0.582 ± 0.09
UUCGAGCAAUAUUACGCACU,–,-1.76 ± 0.38
ACGAAGCAAUAUUACGGGCC,-2.74 ± 0.15,-1.7 ± 0.14
AAGGAGCAAUAUUACGUUAA,-3.12 ± 0.25,-1.69 ± 0.19
UAGAAGCAAUAUUACGGUUU,-3.09 ± 0.17,-2.28 ± 0.16
CUUGAGCAAUAUUACGAUUU,–,-2.09 ± 0.39
AACUAGCAAUAUUACGACAC,-1.04 ± 0.085,-0.404 ± 0.11
UGUGAGCAAUAUUACGAAAA,-1.47 ± 0.35,-1.31 ± 0.46
GAACAGCAAUAUUACGAGAU,-3.55 ± 0.12,-1.4 ± 0.09
GUGCAGCAAUAUUACGCGGA,-2.35 ± 0.27,-1.08 ± 0.12
UCUGAGCAAUAUUACGUGAA,-2.32 ± 0.17,-1.9 ± 0.27
GACUAGCAAUAUUACGCCUU,-0.605 ± 0.067,0.734 ± 0.092
CCGGAGCAAUAUUACGGCUA,–,-0.58 ± 0.2
GUAGAGCAAUAUUACGCAGC,-0.915 ± 0.17,-2.37 ± 0.22
UUGAAGCAAUAUUACGUCGA,0.473 ± 0.084,0.333 ± 0.093
UACGAGCAAUAUUACGCUUG,-2.75 ± 0.32,–
GCCUAGCAAUAUUACGUGCU,-2.06 ± 0.074,-1.17 ± 0.084
GCUGAGCAAUAUUACGUUAA,-3.04 ± 0.34,-2.78 ± 0.32
CAUCAGCAAUAUUACGCUGG,-3.62 ± 0.19,-2.97 ± 0.2
UCUUAGCAAUAUUACGGGAC,-3.78 ± 0.24,-1.8 ± 0.32
GCGUAGCAAUAUUACGUUCA,-0.985 ± 0.11,-0.728 ± 0.12
UAGAAGCAAUAUUACGGUGA,-1.28 ± 0.12,-0.667 ± 0.12
UAAUAGCAAUAUUACGCGGC,-2.97 ± 0.36,-2.34 ± 0.37
CAUUAGCAAUAUUACGUUCA,-2.33 ± 0.2,-2.35 ± 0.24

Sequence,self-splicing fitness (ln) (30 °C),self-splicing fitness (ln) (37 °C)
CAGGAGCAAUAUUACGUGCA,-3.17 ± 0.21,-2.6 ± 0.34
AAAGAGCAAUAUUACGCAAC,-2.78 ± 0.26,-1.77 ± 0.42
CCGAAGCAAUAUUACGCGGG,-3.3 ± 0.19,-2.62 ± 0.24
AUCGAGCAAUAUUACGGUGC,-2.54 ± 0.16,-3.15 ± 0.43
AGGUAGCAAUAUUACGCGGA,-2.062 ± 0.019,-1.09 ± 0.033
CAGGAGCAAUAUUACGGGUC,-2.84 ± 0.19,-2.92 ± 0.21
CGGUAGCAAUAUUACGGGGU,-4.08 ± 0.3,-2.81 ± 0.22
CUGUAGCAAUAUUACGUAAG,-0.583 ± 0.081,-0.353 ± 0.082
ACGUAGCAAUAUUACGAUGA,-0.81 ± 0.091,-0.268 ± 0.11
AAACAGCAAUAUUACGGUAA,-2.28 ± 0.1,-0.892 ± 0.083
AGGGAGCAAUAUUACGUUCA,-1.31 ± 0.18,-1.49 ± 0.19
CGUUAGCAAUAUUACGGCGC,–,-2.24 ± 0.32
CUGAAGCAAUAUUACGCAGG,-1.8 ± 0.082,-1.77 ± 0.12
CCAUAGCAAUAUUACGGGGU,-3.73 ± 0.18,-2.46 ± 0.17
GUUUAGCAAUAUUACGGUAU,-2.05 ± 0.14,0.286 ± 0.15
CGAUAGCAAUAUUACGGAAA,-3.34 ± 0.24,-1.53 ± 0.21
CGUUAGCAAUAUUACGGAUA,-1.83 ± 0.37,-2.08 ± 0.31
GGUCAGCAAUAUUACGGGCG,-0.483 ± 0.088,0.32 ± 0.12
UUGAAGCAAUAUUACGAGCC,-2.69 ± 0.48,-1.56 ± 0.49
GCCAAGCAAUAUUACGGCGG,-3.3 ± 0.14,-1.84 ± 0.16
AUCCAGCAAUAUUACGCAGU,-2.72 ± 0.11,-0.839 ± 0.09
CUGCAGCAAUAUUACGCAUA,-2.84 ± 0.2,-2.73 ± 0.17
UGUAAGCAAUAUUACGGUUU,-2.96 ± 0.16,-1.68 ± 0.18
UCAAAGCAAUAUUACGCCAU,-3.37 ± 0.24,-2.27 ± 0.19
UCACAGCAAUAUUACGUUGG,-2.84 ± 0.11,-2.81 ± 0.18

Sequence,self-splicing fitness (ln) (30 °C),self-splicing fitness (ln) (37 °C)
GCUCAGCAAUAUUACGCUAG,-1.03 ± 0.075,-0.659 ± 0.11
AAUAAGCAAUAUUACGCAUA,-1.59 ± 0.16,-0.617 ± 0.16
GUUCAGCAAUAUUACGCAUA,-0.815 ± 0.083,0.0985 ± 0.1
AGUUAGCAAUAUUACGACGG,-0.829 ± 0.15,-0.189 ± 0.18
CUGUAGCAAUAUUACGACUG,-0.156 ± 0.12,-0.0808 ± 0.17
AGUUAGCAAUAUUACGGAUG,-0.996 ± 0.11,-0.801 ± 0.15
GAAGAGCAAUAUUACGUAGG,-3.14 ± 0.33,-1.99 ± 0.19
GGUUAGCAAUAUUACGUAAA,-1.22 ± 0.13,-0.462 ± 0.2
CUUCAGCAAUAUUACGUAGC,-3.62 ± 0.16,-2.95 ± 0.25
GGGAAGCAAUAUUACGCUUG,-1.61 ± 0.21,-0.729 ± 0.2
GGGGAGCAAUAUUACGAUUG,-2.02 ± 0.45,-1.67 ± 0.45
GUUCAGCAAUAUUACGCCAG,-2.06 ± 0.29,–
UCCGAGCAAUAUUACGGUCU,-2.4 ± 0.15,-1.58 ± 0.13
GCUAAGCAAUAUUACGCUUC,-2.89 ± 0.18,-2.56 ± 0.23
UUAGAGCAAUAUUACGUAGU,-1.3 ± 0.21,-3.47 ± 0.42
GCAUAGCAAUAUUACGUGGU,-3.13 ± 0.14,-2.8 ± 0.15
CCAUAGCAAUAUUACGGGUA,-3.25 ± 0.27,-2.87 ± 0.27
CAUGAGCAAUAUUACGCGGU,-4.59 ± 0.33,-2.33 ± 0.21
CCUAAGCAAUAUUACGCAUA,-4.08 ± 0.28,-2.77 ± 0.27
CAUCAGCAAUAUUACGCGAU,-3.69 ± 0.23,-2.86 ± 0.32
UACCAGCAAUAUUACGCCGG,-3.31 ± 0.22,-3.14 ± 0.37
ACAUAGCAAUAUUACGUCUG,-1.24 ± 0.071,-0.845 ± 0.09
